Measurements taken from PMC5286426, “The Calcium-Dependent Switch Helix of L-Plastin Regulates Actin Bundling” (Scientific Reports, 2017).
“Also recorded” adds a separate entry of the source.

Tests used:
actin [1] = settings: in vitro; cited from earlier work
Text: LPL is comprised of two N-terminal EF-hand motifs (head-piece domain), which are homologous to a single domain of calmodulin (CaM) (34.7% identical), followed by two actin-binding domains (ABDs)[5]. Each ABD consists of two independently folded calponin homology (CH) domains. While many signaling and cytoskeletal proteins share these CH domains, plastins are the only known proteins to have two tandem ABDs[31][32][33]. The four CH domains are each folded into a compact globular shape where the ABD1 and ABD2 are arranged back-to-back[34][35]. Each ABD can bind an actin-filament, thereby LPL ... || In order to further investigate the role of H5 in the Ca^2+-dependent actin-bundling of LPL, we have performed actin-bundling assays with a series of different LPL constructs (Fig. 4).

[2] = cited from earlier work
Text: L-plastin (LPL) is a 70 kDa Ca^2+- and actin-binding protein that plays an important role in both the adaptive and innate immune system. Among the three isoforms found in humans (L-, T-, and I-plastin), LPL is exclusively expressed in cells of hematopoietic origin, where it can act as an actin cross-linker by promoting actin bundling. The actin-bundling activity of LPL is known to be calcium-dependent, where increasing calcium concentrations inhibit the formation of actin-bundles[9][10].

CaM = settings: CaM-pull down; cited from earlier work
Text: The H5 region of LPL was previously predicted as a potential binding site for CaM[48]. Indeed this sequence produced a high theoretically predicted score for CaM binding. […] Therefore, we have tested the interaction between EF-H5 and CaM in the presence of EDTA. However, ...

[3] = system: Human platelet actin (F-actin); experiment: Actin-bundling assay, low-speed centrifugation and SDS-PAGE; type: biochemical; settings: 6 µM F-actin, n = 3 (Fig. 4a); for Amount of actin found in the pellet: 3 µM LPL construct, pH 7.5, room temperature, 1 h; for Amount of LPL found in the pellet: 3 µM LPL
Method: Human platelet actin (Cytoskeleton) was dissolved in 2 mM Tris pH7.5, 0.2 mM CaCl2, 0.2 mM ATP, and 0.5 mM DTT (Buffer G). The actin was then polymerized overnight at 4 °C in 20 mM Tris pH 7.5, 100 mM KCl, and 1 mM MgCl2. Spontaneously bundled F-actin was removed by centrifugation at 12,000 g for 15 min prior to the assay. F-actin and LPL constructs were incubated at room temperature for 1 h in 50 uL of the buffer containing 20 mM Tris pH7.5, 100 mM KCl, 1 mM MgCl2, 6 µM F-actin, 3 µM LPL construct, 0.1 mM CaCl2, 0.1 mM ATP with and without 5 mM EGTA. LPL induced actin bundles were sedimented by centrifugation at 12,000 g for 15 min and the supernatant was carefully removed. The amount of actin and/or LPL construct in the pellet was analyzed by SDS-PAGE. The effect of the presence of 12 µM melittin peptide on actin-bundling was also examined.

actin [4] = settings: compared to the non-phosphorylated LPL protein; cited from earlier work
Text: In addition to the Ca^2+ switch, the targeting of LPL to the actin cytoskeleton is also regulated by the phosphorylation of Ser5[41]. Among all three human plastin isoforms, LPL is the only isoform that is currently known to be phosporylated in vivo[40]. Unlike other actin-binding proteins, where phosphorylation usually occurs in the actin-binding domain, LPL phosphorylation seems to take place on the regulatory Ca^2+-binding domain. […] They hypothesized ...

B1: ABD1: actin-binding domain 1 of LPL (residues 113–379) (protein, UniProt P13796 113-379, looked up, fragment)
chain: GTQHSYSEEEKYAFVNWINKALENDPDCRHVIPMNPNTNDLFNAVGDGIVLCKMINLSVPDTIDERTINKKKLTPFTIQENLNLALNSASAIGCHVVNIGAEDLKEGKPYLVLGLLWQVIKIGLFADIELSRNEALIALLREGESLEDLMKLSPEELLLRWANYHLENAGCNKIGNFSTDIKDSKAYYHLLEQVAPKGDEEGVPAVVIDMSGLREKDDIQRAECMLQQAERLGCRQFVTATDVVRGNPKLNLAFIANLFNRYPALHK
modifications: actin-binding domain 1
Actin [1]
  Actin binding of ABD1 relative to ABD2: an order of magnitude stronger than ABD2; also recorded: ten times stronger than ABD2

B2: T-plastin: plastin isoform from solid tissues, such as fibroblasts and epithelial cells (protein, UniProt P13797 1-630, looked up)
Plastin-3: MDEMATTQISKDELDELKEAFAKVDLNSNGFICDYELHELFKEANMPLPGYKVREIIQKLMLDGDRNKDGKISFDEFVYIFQEVKSSDIAKTFRKAINRKEGICALGGTSELSSEGTQHSYSEEEKYAFVNWINKALENDPDCRHVIPMNPNTDDLFKAVGDGIVLCKMINLSVPDTIDERAINKKKLTPFIIQENLNLALNSASAIGCHVVNIGAEDLRAGKPHLVLGLLWQIIKIGLFADIELSRNEALAALLRDGETLEELMKLSPEELLLRWANFHLENSGWQKINNFSADIKDSKAYFHLLNQIAPKGQKEGEPRIDINMSGFNETDDLKRAESMLQQADKLGCRQFVTPADVVSGNPKLNLAFVANLFNKYPALTKPENQDIDWTLLEGETREERTFRNWMNSLGVNPHVNHLYADLQDALVILQLYERIKVPVDWSKVNKPPYPKLGANMKKLENCNYAVELGKHPAKFSLVGIGGQDLNDGNQTLTLALVWQLMRRYTLNVLEDLGDGQKANDDIIVNWVNRTLSEAGKSTSIQSFKDKTISSSLAVVDLIDAIQPGCINYDLVKSGNLTEDDKHNNAKYAVSMARRIGARVYALPEDLVEVKPKMVMTVFACLMGRGMKRV
[2]
  Sensitivity to intracellular Ca^2+-signals: relatively insensitive

B3: LPL: 70 kDa Ca^2+- and actin-binding protein, full-length human L-plastin (protein)
chain: MARGSVSDEEMMELREAFAKVDTDGNGYISFNELNDLFKAACLPLPGYRVREITENLMATGDLDQDGRISFDEFIKIFHGLKSTDVAKTFRKAINKKEGICAIGGTSEQSSVGTQHSYSEEEKYAFVNWINKALENDPDCRHVIPMNPNTNDLFNAVGDGIVLCKMINLSVPDTIDERTINKKKLTPFTIQENLNLALNSASAIGCHVVNIGAEDLKEGKPYLVLGLLWQVIKIGLFADIELSRNEALIALLREGESLEDLMKLSPEELLLRWANYHLENAGCNKIGNFSTDIKDSKAYYHLLEQVAPKGDEEGVPAVVIDMSGLREKDDIQRAECMLQQAERLGCRQFVTATDVVRGNPKLNLAFIANLFNRYPALHKPENQDIDWGALEGETREERTFRNWMNSLGVNPRVNHLYSDLSDALVIFQLYEKIKVPVDWNRVNKPPYPKLGGNMKKLENCNYAVELGKNQAKFSLVGIGGQDLNEGNRTLTLALIWQLMRRYTLNILEEIGGGQKVNDDIIVNWVNETLREAKKSSSISSFKDPKISTSLPVLDLIDAIQPGSINYDLLKTENLNDDEKLNNAKYAISMARKIGARVYALPEDLVEVNPKMVMTVFACLMGKGMKRV
modifications: left off: GST, end not stated, cleaved
CaM
  Direct binding to CaM: only seen in the absence of Ca^2+
[2]
  Sensitivity to intracellular Ca^2+-signals: optimal Ca^2+-binding affinity to respond to intracellular Ca^2+-signals
[3]; in the presence of Ca^2+ (0.1 mM CaCl2)
  Amount of actin found in the pellet: ~ 50%
[3]; in the presence of EGTA, 5 mM EGTA
  Amount of actin found in the pellet: ~ 90%
[3]; with Ca^2+
  Amount of LPL found in the pellet: ~ 50%
[3]; with EGTA
  Amount of LPL found in the pellet: ~ 70%

B4: S5E mutant: LPL S5E mutant of Janji and coworkers (protein, UniProt P13796 2-627, looked up, variant S5E)
Plastin-2: ARGEVSDEEMMELREAFAKVDTDGNGYISFNELNDLFKAACLPLPGYRVREITENLMATGDLDQDGRISFDEFIKIFHGLKSTDVAKTFRKAINKKEGICAIGGTSEQSSVGTQHSYSEEEKYAFVNWINKALENDPDCRHVIPMNPNTNDLFNAVGDGIVLCKMINLSVPDTIDERTINKKKLTPFTIQENLNLALNSASAIGCHVVNIGAEDLKEGKPYLVLGLLWQVIKIGLFADIELSRNEALIALLREGESLEDLMKLSPEELLLRWANYHLENAGCNKIGNFSTDIKDSKAYYHLLEQVAPKGDEEGVPAVVIDMSGLREKDDIQRAECMLQQAERLGCRQFVTATDVVRGNPKLNLAFIANLFNRYPALHKPENQDIDWGALEGETREERTFRNWMNSLGVNPRVNHLYSDLSDALVIFQLYEKIKVPVDWNRVNKPPYPKLGGNMKKLENCNYAVELGKNQAKFSLVGIGGQDLNEGNRTLTLALIWQLMRRYTLNILEEIGGGQKVNDDIIVNWVNETLREAKKSSSISSFKDPKISTSLPVLDLIDAIQPGSINYDLLKTENLNDDEKLNNAKYAISMARKIGARVYALPEDLVEVNPKMVMTVFACLMGKGMKRV
Actin [4]
  Actin bundling activity: increased actin bundling activity
